These results are taken from patent US20200069813A1 (S M DISCOVERY GROUP, published 2020).

Where no end group is shown, it is not given here. 5‑FAM = fluorescein amidite

Assay [1] addresses T1, receptor for advanced glycation end products (RAGE) (human, UniProt Q15109 23-404).
T1 construct: whole, on cells; Endogenous receptor on hCMEC/D3 cells; No purified receptor was used; also called RAGE receptor
Put plainly: Uptake by hCMEC/D3 cells after RAGE siRNA knock-down, FACS and fluorescence microscopy.

In assay [2] the target is T2, transferrin receptor (TFRC) (human, UniProt P02786 1-760).
T2 construct: whole, on cells; Endogenous receptor on hCMEC/D3 cells; No purified receptor was used
T2 sequence (P02786 whole entry): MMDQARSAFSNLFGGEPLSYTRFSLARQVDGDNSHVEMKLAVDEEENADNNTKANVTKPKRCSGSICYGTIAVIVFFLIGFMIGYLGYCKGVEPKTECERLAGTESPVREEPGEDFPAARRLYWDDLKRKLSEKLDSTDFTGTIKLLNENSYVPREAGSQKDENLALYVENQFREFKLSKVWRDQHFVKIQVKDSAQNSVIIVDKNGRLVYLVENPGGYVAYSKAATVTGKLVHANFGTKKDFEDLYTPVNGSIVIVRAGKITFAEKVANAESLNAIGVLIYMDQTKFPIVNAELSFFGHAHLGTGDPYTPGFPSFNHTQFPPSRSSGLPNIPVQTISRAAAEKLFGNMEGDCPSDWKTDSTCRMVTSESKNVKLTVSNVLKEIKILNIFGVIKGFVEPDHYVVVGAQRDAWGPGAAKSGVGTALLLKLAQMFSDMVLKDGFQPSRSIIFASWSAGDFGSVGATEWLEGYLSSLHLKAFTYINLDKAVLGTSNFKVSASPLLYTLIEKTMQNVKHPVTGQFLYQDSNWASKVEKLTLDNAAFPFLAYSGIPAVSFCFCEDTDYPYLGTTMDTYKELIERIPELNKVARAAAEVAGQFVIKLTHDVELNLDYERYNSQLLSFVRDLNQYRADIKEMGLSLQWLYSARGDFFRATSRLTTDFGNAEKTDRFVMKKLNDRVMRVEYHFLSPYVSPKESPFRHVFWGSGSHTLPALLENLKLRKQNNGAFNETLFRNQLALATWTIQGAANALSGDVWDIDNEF
In words: Uptake by hCMEC/D3 cells after TFRC siRNA knock-down, FACS and fluorescence microscopy. On the procedure:
Cell nucleus stained with Hoechest 33342, Insert bars=50 μm.
The commercial transfection reagent siPORT Amine/TFRC siRNA complex was incubated for 72 h in hCMEC/D3 cells including an unspecific siRNA (siControl) as control.

T1 sequence (Q15109 23-404): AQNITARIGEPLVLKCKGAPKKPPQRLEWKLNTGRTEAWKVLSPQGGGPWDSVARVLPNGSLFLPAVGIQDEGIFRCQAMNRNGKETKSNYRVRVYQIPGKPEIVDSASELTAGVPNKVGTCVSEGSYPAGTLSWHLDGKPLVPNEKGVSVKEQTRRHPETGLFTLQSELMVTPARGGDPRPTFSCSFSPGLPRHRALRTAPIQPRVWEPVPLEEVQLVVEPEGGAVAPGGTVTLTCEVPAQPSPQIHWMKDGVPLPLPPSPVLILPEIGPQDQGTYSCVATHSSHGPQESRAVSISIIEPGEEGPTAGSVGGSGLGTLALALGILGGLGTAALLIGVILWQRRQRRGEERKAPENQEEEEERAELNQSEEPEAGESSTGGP

B1: FAM-CGY peptide (5-FAM-Cys-Gly-Tyr-Arg-Pro-Val-His-Asn-Ile-Arg-Gly-His-Trp-Ala-Pro-Gly) (peptide)
peptide: {5‑FAM}-CGYRPVHNIRGHWAPG
modifications: also: forms assemblies with intermolecular Cys disulfides
notes: Synthetic peptide conjugate; also called FAM-CGY nanoparticles; FAM-CGY peptidic nanoparticles
On to B1, for which the binding result in assay [1] and in assay [2] was “binds” in each case.
